± gives the uncertainty stated by the source.
Experiment: protein stability index of a GFP-peptide fusion (yeast GPS) (PSI 1-4); higher = more stable; sorted into four equal gates, so the index is relative within each strain
Conditions: pdr5∆
Method in brief: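 Tiled yeast protein peptides of 17 residues were each joined downstream of GFP, on plasmids that also express Cherry. The pooled library was maintained in yeast, and mid-log cultures in leucine-free medium were sorted into four equal gates on the GFP/Cherry ratio. Plasmids from every gate were amplified by PCR and sequenced on Illumina, with barcodes linking reads to strains. The protein stability index of a peptide is its gate-number-weighted read frequency summed over the gates.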

Sequence | protein stability index
QQQQQQQQQQQNNSTGS [SSN2] | 2.78 ± 0.049
QQQRRQLTPQQQQLVNQ [GAL11] | 3 ± 0.05
QQVVCIFSYGPHIQKML [POP6] | 1.77 ± 0.047
QRKEIKDRISSCSSKEK [SMC4] | 2.7 ± 0.063
QRKNIQSLELMIYDDAH [BRR2] | 2.61 ± 0.051
QRLVTPQRLQRKRHQRA [RPS6A] | 3.13 ± 0.05
QRQYKVQLLLHINSILL [SNF11] | 1.84 ± 0.061
QRTAQDRVQQDSEDEDS [YML031W/NDC1] | 2.56 ± 0.078
QSQQAQPSDVMFNDLNS [MED2] | 3.37 ± 0.078
QSSFAGTWSAKEAVFKS [FAS2] | 3.23 ± 0.071
QSSSSTRSHEYGRKSFR [REC8] | 2.92 ± 0.099
QSTQTDLEKTERIVVSY [SMC2] | 2.94 ± 0.065
QTARKSTGGKAPRKQLA [HHT1] | 3.29 ± 0.098
QTDAIKSDEAKWKPVLS [RPN5] | 2.99 ± 0.19
QTGTRRNSKLLNTKSIQ [MCD1] | 3.19 ± 0.18
QTKSNGTAGGNTFGSSS [YJL041W/NSP1] | 2.84 ± 0.064
QTSVTTNFNEITNTDET [SWP82] | 3.09 ± 0.051
QTYINQELGFCELLKLT [SSN2] | 2.45 ± 0.12
QVEYALESISHAGTAIG [PRE9] | 2.33 ± 0.083
QVGDGLEILIVTKDGVR [PRE7] | 2.6 ± 0.049
QVLNRYTYSSTLSHLRR [RPB2] | 2.83 ± 0.041
QVLSQSADPSLLIDQFS [SWI1] | 2.96 ± 0.073
QVQGQQQAQSFVGKKNT [SSN3] | 2.69 ± 0.048
QWFEAHYGQTLGKKKNV [RPS8A] | 2.876 ± 0.025
QYSLERNSPFWWTNSHH [PRP8] | 2.79 ± 0.065
QYYRGLPLYEKNTLLER [SWP82] | 3.34 ± 0.11

Sequence | protein stability index
RAGVTIPSIPNPIANHT [SNF5] | 2.61 ± 0.039
RAKSCGVDAMSVDDLKK [RPL1A] | 2.41 ± 0.078
RAKSSSHLFNEYSYVDS [RPN4] | 3.23 ± 0.24
RALQENGIIMNGTLIGC [YMR153W/NUP53] | 2.28 ± 0.071
RAPELLLGARHYTPAVD [SSN3] | 1.08 ± 0.13
RAQHVKKLATRPKCGDC [RPL34A] | 3.06 ± 0.12
RASDLRMTIRTRGRSAT [RRP43] | 2.36 ± 0.093
RATNCRKRKCGHTNQLR [RPL40A] | 3.13 ± 0.058
RDIFQEDEENSDVLLFQ [RGR1] | 3.46 ± 0.071
RDKAGRLAEVNLKDLNN [RPO21] | 2.75 ± 0.083
RDVSDDVFDTLATYCPR [GRR1] | 3.04 ± 0.071
RDVYVFDKVEVQVRSVM [DIS3] | 3 ± 0.068
REIQIDAVLKIFSFHQD [SRB8] | 3.12 ± 0.09
REKLAEVYKAEKDAVSV [RPS24A] | 3.17 ± 0.069
REKVRKLSQYVQEMALG [FAS2] | 3.41 ± 0.11
REKYNMKGPAALWDVQF [ARP9] | 3.59 ± 0.08
RENVFFQSQQRRKDTSM [RPB9] | 3.4 ± 0.11
REQYETQVALNESEKDQ [UBP6] | 2.66 ± 0.065
RESRIVSTEGNVPQTLA [RPL21A] | 2.25 ± 0.082
RFPTKFVTQFRHLRRTG [RET1] | 1.73 ± 0.14
RGFFHLNEALLQCPMLY [CSN12] | 2.2 ± 0.058
RGGFGGRNRGRPNRRGP [RPS2] | 3.28 ± 0.14
RGREEAASFKKLYKTPI [PRE10] | 3.06 ± 0.27
RGTTAVLKESIVNICDI [PUP1] | 3.2 ± 0.22
RHLEKEGIIKPISKHSK [RPS25A] | 3.28 ± 0.093
RIATEASKLAAYNKKST [HTB1] | 2.47 ± 0.24

Sequence | protein stability index
RIFAIAFTRKQANQVKR [RPS1A] | 1.66 ± 0.019
RIKLATTSERVSNENKK [RRI1] | 3.08 ± 0.071
RISGLIYEEVRAVLKSF [HHF1] | 3.13 ± 0.2
RKANREEKLKANKEKKK [RPL24A] | 1.98 ± 0.066
RKDTVSREVLRYEEFAD [RPC40] | 3.59 ± 0.15
RKFALEKLYIFYKLNMP [SRP72] | 1.79 ± 0.057
RKLFPNWIKPSDSEIPP [PRP8] | 2.89 ± 0.11
RKPILLPDPKPLPLDLN [ITC1] | 2.55 ± 0.045
RKRVYNIKFLSKLEGTI [ESC2] | 3.51 ± 0.2
RKVVFPFQLDVADMLTP [UBP6] | 2.02 ± 0.12
RLECVKCKTRAQLTLKR [RPL42A] | 2.46 ± 0.085
RLENKLSEIESLDEILL [SRP68] | 2.99 ± 0.11
RLFIGDQNNKKMVGLRG [SNF2] | 2.87 ± 0.085
RLKQVFNRALDQSISKL [NNF1] | 2.11 ± 0.039
RLLITGTPLQNNLHELW [ISW2] | 2.61 ± 0.076
RLNKLNSNGIAMASLYL [SMD1] | 2.95 ± 0.063
RLSNEMHALKNRSEQNG [RGR1] | 3.25 ± 0.17
RLTGSLLAHKVADEEAN [RPC37] | 1.32 ± 0.068
RNADELSSYQKKIIKCD [PRE5] | 2.08 ± 0.084
RNEKIAVHVTVRGPKAE [RPL11A] | 2.3 ± 0.061
RNIILEARFDVLITSYE [ISW2] | 2.22 ± 0.076
RNMAEEFEYDDEPDEQG [CYT1] | 3.17 ± 0.061
RNQEKKMEKKKSSSLSL [SNM1] | 3.5 ± 0.16
RPKCGDCGSALQGISTL [RPL34A] | 1.42 ± 0.067
RPKKVKLEGSENSEPPA [SNF2] | 2.95 ± 0.08
RPNGRKDHDLKIPLPEV [POP1] | 3.18 ± 0.058

Sequence | protein stability index
RQFLKANKTNLIESLNT [YML103C/NUP188] | 2.97 ± 0.062
RQLTSMEFSNLYKEFFN [NUT1] | 2.59 ± 0.068
RQMKDVNAPLPTPFKVD [RPN2] | 3.04 ± 0.066
RQPSLHKMSMMAHRVKV [RPO21] | 2.37 ± 0.073
RQQAYKTAQTLDENLNS [YJL041W/NSP1] | 2.76 ± 0.079
RQQKLLLETKLRQQYEI [SWI1] | 2.93 ± 0.1
RQREMAEEQTKLQSQSL [YLR018C/POM34] | 3.28 ± 0.046
RQYVGQLAPSSVDPQSS [DIS3] | 3.06 ± 0.059
RREELQQRIREIGLLPE [SMC3] | 3.06 ± 0.2
RRFNSSIGRTAQGKEFG [RPL17A] | 2.96 ± 0.089
RRGYQVYREVCAACHSL [CYT1] | 1.94 ± 0.059
RRILAAAAAAAAAVSGN [SSN3] | 1.26 ± 0.1
RRLPEDESYARAYRIIR [QCR7] | 2.72 ± 0.061
RRLPMTMFTAEQSELLK [SNF2] | 3.08 ± 0.073
RRRAFKRSQKKHKKKHL [RPB4] | 3.1 ± 0.078
RRRRLKKVEEEENAATL [RPB4] | 3.75 ± 0.26
RRRSSTNKSKRPSITEA [MED1] | 3.15 ± 0.061
RSAWNNNNDNDANRNAN [GRR1] | 2.65 ± 0.036
RSDLQSKIQEIESIRSC [YIL149C/MLP2] | 2.79 ± 0.09
RSIRGSFTSQGTISIQL [MTR3] | 2.73 ± 0.057
RSKFLSTVAKFLARVIK [IRR1] | 2 ± 0.07
RSLASFEQTAFSRHAQQ [SIR4] | 2.73 ± 0.045
RSNFRVNLSQEALQYDP [SNU114] | 2.31 ± 0.09
RSPRVVTNALDNIDEKV [NUT1] | 2.79 ± 0.054

Source: the supplement of paper PMC9732359
